Test results as given in the DeepSol protein solubility set.

Assay: soluble on expression in E. coli; label from the status in PepcDB or PDB records

Q: Which “soluble on expression in E. coli” value does the source give for “MGSDKIHHHHHHMMSKYPLLGMTLIELQSLVKRLGMPGFAAKQIASWLYDKKVTSIDEMTNLSLKYRELLKQNYEVGAEAPVEEMRSVDGTVKYLYPVGENHFVESVYIPDDERATLCISSQVGCKMNCKFCMTGKQGYSANLTAHQIINQIHSLPERDKLTNVVMMGMGEPLDNLEEVLKALDILTGSYGYAWSPKRITVSTVGLRKGLRRFIEESDCHLAISLHSPVTAQRAELMPAEKAFSITEMVELLKNYDFSKQRRLSFEYIVFKGLNDSQVYAKELLKLLRGLDCRMNLIRFHSIPGVALEGADMDTMTRFRDYLTTHGLFTTIRASRGEDIFAACGMLSTAKQEENNKS” here?
A: The value was “not soluble”.

Q: Which “soluble on expression in E. coli” value does the source give for “MNMKPESKEAPINIRAKASQRDLIDMAANLVAKSRTDFMLDAACREAQDILLDQRLFILDDEQYDAFLAALDAPITAERQAKINALMNRKSPWE” here?
A: Its value is “soluble”.

Q: With “MIHSNEPLPYAIEYAKSGRSTCKTCKKNIALDQLRMSMNRPSTFFDGNMDSWFHYNCFWNKMIRGRDDINISSIRGVDWLRWEDQEKLRQEIQHFKTASPPTLTPLFSTTTVILSTIKTEKSLSNRGKCGKCGQNFERGEIKAHNKGKANHFECFLQEFDKISGTVEDIPGWADYEANFKIKATGEYVEALAAKGGSTEPATPASASPTPPEAETPVLSAEGSPESSNKRPASAEIIEIDGEGNPDENDFAKKRRMKKEARLMEVQKKRMKKQSDLLWEYRQIFERMPYTDNISILRENEQDIPEGHDRTAQDVFHEKTKNDWIYRKHFRKMPGMFSYVETDYSEFVGTNNGHKKKITPGSKITPGSKTLLPKSVKEVVMSIFDVENMKSALKSFEIDVNKMPLGRLSHNQINLAFEVLNDISDLLVKLPIDASKILDFSNKFYTIIPHNFGMRVPEPIDSFHKIKEKNNMLNALLDIKFAYDQISGGDVPASTSLSIDPVDINYRKLKCIMEPLQQGCDDWNMIHQYLKNTHGATHDLKVELIDILKVNRDNESSKFKRHIGNRRLLWHGSGKMNFAGILGQGLRIAPPEAPVSGYMFGKGVYFADMFSKSFFYCRANAKEEAYLLLCDVALGNVQQLMASKNVSRQTLPAGFQSVQGVGRQCPREIGSYKNPDGYTVPLGLTYMQLQGKQNVDYHLLYNEFIVYDVDQIQLKYLVRVKMHHARHL” as the sequence, how does the “soluble on expression in E. coli” value read?
A: The value was “not soluble”.

Q: For “MWAQKTLQLKARSRGFHLITDEIEQQLPQIHELSVGLLHLFIQHTSASLTLNENADPTVRMDMEAHFNKFVQERAPYYQHTYEGDDDMPAHIKASLLGSSVTIPIQNGRLALGTWQGIYLGEHRDFGGSRRIIATINGELEHHHHHH”, which “soluble on expression in E. coli” value is on record?
A: Its value is “soluble”.

Q: With “MSLNYEMFAKLYDRLMADAPYDRWAKLVEEEIRKAIFSDVNLLDIGCGTGRLLKILSERGYACTGVDQSANMLVIAREALAQKGVQVPLFQQDMTEFYTGETYQVITIFCDSLNYVITEEGVVQTFQRVFDHLDQQGVFMFDVHSPTKLRNHFIGKTFADADEEISYIWQSFAGEAEQSVEHELTFFVRNETGSYDRYEELHIQRGYPIERYVDWLKEAGFSRIDITADFTNEAPTENSERIFFKAYKKEGHHHHHH” as the sequence, how does the “soluble on expression in E. coli” value read?
A: The value was “soluble”.

Q: Which “soluble on expression in E. coli” value does the source give for “MIVSFMVAMDENRVIGKDNNLPWRLPSELQYVKKTTMGHPLIMGRKNYEAIGRPLPGRRNIIVTRNEGYHVEGCEVAHSVEEVFELCKNEEEIFIFGGAQIYDLFLPYVDKLYITKIHHAFEGDTFFPEMDMTNWKEVFVEKGLTDEKNPYTYYYHVYEKQQLEHHHHHHHH” here?
A: Its value is “soluble”.

Q: With “SNAMKYTVYLFDFDYTLADSSRGIVTCFRSVLERHGYTGITDDMIKRTIGKTLEESFSILTGITDADQLESFRQEYSKEADIYMNANTILFPDTLPTLTHLKKQGIRIGIISTKYRFRILSFLRNHMPDDWFDIIIGGEDVTHHKPDPEGLLLAIDRLKACPEEVLYIGDSTVDAGTAAAAGVSFTGVTSGMTTAQEFQAYPYDRIISTLGQLISVPEDKSGCPL” as the sequence, how does the “soluble on expression in E. coli” value read?
A: The value was “soluble”.

Q: With “MSIWCAVCNDLKPCEEATQLIPCLHTFCTKCLKKSTKKMRVCPVAHCYSSLTAPEPMTSTCEGENCQRKIMGNAEILRTACHHDICQHCYDLASRKEKSCCPALGCAELMIDEEDMICEGPCKKALVFDKTIVIPCCGARMCDVCGPKWTNGRDFCELGKCVNKESAKRRKSADATRQPCMGSLHCEGEVLRNFPSELECDHDVCIKCIGSMLDECEKNGKSPACPVKTCAIPYRCESVLALDAQFPEKKAFFSKFTLQAKFSMQTLKDDIVTNIIHGDLNTMNGQKFSLKIGQCDDDDGGMPMEFVREGTLGDLVRETRRVLKILPTDKIYGYYRIDDNKKSKLDVTKDTIRSSCSSLNINENTTVLVDTTGIVSRPKKQ” as the sequence, how does the “soluble on expression in E. coli” value read?
A: Its value is “not soluble”.

Q: For “MAHHHHHHMALLVYLNNKQTHSFIAVRKSSSLLFSPGNFKAIYQRIYEHLNDQYEERGQLEAGEEILTVKPNVFAQNGVIDFDGVRKMWTSHIVPQLRRCVTGDHLANTTDNSVVSIEESAVFCDIGSGVGNVCLQLLAETNCRKVVGVEVIPSRHRAATTAFAKALSYFPENFSGKQAIFIQDDFVNCARRMVEENVNVIFTHSWMFDDELMKRLTELVVSLPALLCVVTSRPLHENLLVGSQMKLVSYVHLTADWNDEAPFFIYRKIT”, which “soluble on expression in E. coli” value is on record?
A: Its value is “not soluble”.

Q: Which “soluble on expression in E. coli” value does the source give for “MDKFKSMTELKELTKEGKDWEIECENRSSIVTILALHGGGIEPATTELAYTIAHCGDYNYFSFKGMRSKGNNELHVTSTHYDDQIALDLVRGSQRTVAIHGCEGNESVAYIGGSDDRLIELITESLEDIGISVREAPHHISGTQENNIVNMTQTQGGVQLELTAQLRKELFKNRKSSRKNRENKDNWDDLMYDFADAMKKAIERALEHHHHHH” here?
A: Its value is “soluble”.

Q: With “MGSDKIHHHHHHMKNALIQSGPDTTGRRPSRKVLIYGLNYAPELTGIGKYSAEMAESLADVGYEVRVICAPPYYPEWRIGAGHSAWRYRTEQRAAVRIQRAPVWVPSRPSGLKRLLHLASFAVSSLPTVFAQLFWRPDIVIAVAPSLMNIPAALMFGKMARARTWLHIQDYEVDAAFELGMLKGKRLRQFALGVESWLMRRFDVVSTISARMIEHGRNKGVDSPRLFALPNWVDVNVIFPLDRPSLYRTALNIPDEAIVVLYSGNMGAKQGIEVLAQAAASLAHRSDIHFVLCGDGPYKVNLVEQCGHLANCTFLSLQPFDKLNDLLNVADIHVLPQRADAADLVMPSKLTGMLASGRSIIAMARAGTELFDVVSPRGVTVPPEDVQALVAAIENLADDVDQRTRLGAAARAYAETELSRRAVIERLDGRFQMLCDRVRGRSVFT” as the sequence, how does the “soluble on expression in E. coli” value read?
A: The value was “not soluble”.

Q: With “MAQEIERKFLVSGDFKSFAFAQSRIMQGYICSARGRTVRVRIRDDKGYLTIKGASNESGTSRYEWEKELPLSEAEELMKLCEPGMIDKTRYLVRSGNHIFEVDEFYGENEGLIVAEVELGTEDEAFVKPGFIGEEVTGDVRYYNSHLMKKPYKMW” as the sequence, how does the “soluble on expression in E. coli” value read?
A: The value was “not soluble”.

Q: Which “soluble on expression in E. coli” value does the source give for “MAHHHHHHSLSQVILDLQLACENHAGLPDEAQFQRWLDGVIPQFQEEAEVTIRLVDEAESHDLNLTYRGKDKPTNVLSFPFEAPPGIEMPLLGDLIICRQVVEQEAQEQSKPLEAHWAHMVVHGSLHLLGYDHIDDDEAEEMESLETEIMLAMGYEDPYIAEKIAE” here?
A: The value was “soluble”.

Q: Which “soluble on expression in E. coli” value does the source give for GSLHRVPLRRHPSLKKKLRARSQLSEFWKSHNLDM here?
A: The value was “soluble”.

Q: With “GHMASGSLGELQESQSRLEAATKECQALEGRARAASEQARQLESEREALQQQHSVQVDQLRMQGQSVEAALRMERQAASEEKRKLAQLQVAYHQLFQEYDNHIKSSVVGSERKRGMQLEDLKQQLQQAEE” as the sequence, how does the “soluble on expression in E. coli” value read?
A: The value was “soluble”.

Q: For “MVKETEYYDILGIKPEATPTEIKKAYRRKAMETHPDKHPDDPDAQAKFQAVGEAYQVLSDPGLRSKYDQFGKEDAVPQQGFEDASEYFT”, which “soluble on expression in E. coli” value is on record?
A: Its value is “not soluble”.

Q: For “MSRSQVTGKEFVLRCVFNDVSNMNDNDMRFGTVEEYFNVPWIFQIQRNNGNLGIYLRCTNLKDQEMWSIFSELELKLVSVYSDTRDQKCKIDMCFGHDSGKFYSSYGWSEFISWNELETSFMEAGSITVEARVLINKSIGFYTPKLMDFDEKMMEYSDIVVLVNGQRFYLLKKFLAFHSTFFESLFLGGFYEAKLAEVPLYDIDVDDFQKFLEVLYGFPVINVIVPINKLTLQQSEMLNACAQYAQTGSQKLTREANYVITEVRLF”, which “soluble on expression in E. coli” value is on record?
A: The value was “not soluble”.

Q: For “GMKRVLLLFDVDGTLTPPRLCQTDEMRALIKRARGAGFCVGTVGGSDFAKQVEQLGRDVLTQFDYVFAENGLLAYRNGLEIHRQSLLNALGNDRIVKFVKKTLRLIADLDIPVQRGTFVEYRNGMINVSPIGRNCSQAERDEFEVYDNEHRVRASLIAELENSFPDFGLKYSIGGQISFDVFPVGWDKTYCLQFVEDDFEEIHFFGDKTQEGGNDYEIYTDKRTIGHKVTSYKDTIAEVEKIIAMK”, which “soluble on expression in E. coli” value is on record?
A: Its value is “soluble”.

Q: Which “soluble on expression in E. coli” value does the source give for “MPVETREISVTAKEDCGIVDITGIVSEEVEKSEIKNGTVTVFCVGSTGAISTMEFESNLSKDISEILDKLIPLNEDYHHHKTWGDFNGGSHLRSFLLGPSLTVPFVEKKLTLGTWQQIVYINFDRIEKVRKIVLQIIGDLLEHHHHHH” here?
A: Its value is “soluble”.

Q: For “MSLRFLADIEEYIGFEIPKIEAPSQEEVARKKPEFLAKLNDRPESKKDKSEELNKDIMKLYFNGGKKKKIRAVDFVGTIAKIDGVSADDIGIITIMDNASYVEILNGKGPHVLKVMKNTTVKGKQLKVNKANKEGHHHHHH”, which “soluble on expression in E. coli” value is on record?
A: The value was “not soluble”.

Q: Which “soluble on expression in E. coli” value does the source give for “MQPVLVFKLTADFREDPDPRKVNLGVGAYRTDDCHPWVLPVVKKVEQKIANDNSLNHEYLPILGLAEFRSCASRLALGDDSPALKEKRVGGVQSLGGTGALRIGADFLARWYNGTNNKNTPVYVSSPTWENHNAVFSAAGFKDIRSYRYWDAEKRGLDLQGFLNDLENAPEFSIVVLHACAHNPTGIDPTPEQWKQIASVMKHRFLFPFFDSAYQGFASGNLERDAWAIRYFVSEGFEFFCAQSFSKNFGLYNERVGNLTVVGKEPESILQVLSQMEKIVRITWSNPPAQGARIVASTLSNPELFEEWTGNVKTMADRILTMRSELRARLEALKTPGTWNHITDQIGMFSFTGLNPKQVEYLVNEKHIYLLPSGRINVSGLTTKNLDYVATSIHEAVTKIAENLYFQSHHHHHHDYKDDDDK” here?
A: Its value is “soluble”.

Q: Which “soluble on expression in E. coli” value does the source give for “MGSDKIHHHHHHMKMHVAFVHRRGFGQFAALARHLAEAGNEVTLVTETVDQRIPSVRVVRHRAEPGPQPNPHIARHLGVPDHHVRIGHRVAETFDAMGRLGQSPDIVLGHIGWGSMMFVKDVLPRVPALGYCEFFYRSEGADVGFAPDDRPDSETRKRLRLRNIAQLLSLEAMDGGISPTNWQKSLYPADARQRIAVCHEGVDTRRFRPDPAASLKLPDGRVLKAGDPVVTFVARDLEPYRGFPQALEAAAKVVRRHPDALFVFVGGDGVSYGAPPPGGGSWKDHLLASLDVPRERLIFPGVVPHSVLRQLFQISAAHLYLTYPFVLSWSVLEAMACGALVIGSDTAPVQEVIRSGRNGLLVPFFDTDALAETIVGALNRPDNFRELRGAARRTVEQRFRLDDCLARQLTLIGNLTGRNAAQAKETQFV” here?
A: The value was “not soluble”.

Q: With “MAHILLIPANSPFVVTGALSAKVSTVEEFAQKHRAFAIFNAGFFDPANQKSTSYVVVTGQMVADPKDNERLVNNPQLKPYLNLIFNRSEFRRYLCGQTTRYDITLHNESPPANCRLVDAIGAGPRLLPKLTSVPEGFVDNAKGRDALLSKQLNARTAVGITSEGSIILVMVAQKPSKPKNSGISLVQLADLMKKLGASAAMNLDGGSSSSLYYNGKAFYGKFDLQGNPIKRKVKSVLLVQENVRNLEHHHHHH” as the sequence, how does the “soluble on expression in E. coli” value read?
A: Its value is “not soluble”.

Q: For “MGNKRVLITGATGFIGGYLVDEALRRQYEVWAAVRPHSDRSRLTDSRIRFVEIDYRDPSDIARLADKIAPEGESAWHLVIHNAGITKARDTSLFREINAEQTKRFLIGLQGAKHCPERFVLMSSMGSYGAPPDDCQPLSSSSVPKPTTAYGESKLLAEQYVQTFVTIPYTIIQPTGVYGPHDQDYLMAIRSVDKGFDFSTGNTPQTLTFIYAEDLASAVFIAAEHPDAAGQKYIVSDGKEYTDIEFGRMIQHLLDRKNVCHLRIPLPLVKATCYIGQKWADISGTLTPLNLDKYAIIAQRNWRCDSSPIRAIGFSPRYNLEQGLAETIRWARTTGQIRR”, which “soluble on expression in E. coli” value is on record?
A: Its value is “not soluble”.
